From US6428997B1, “Aminopeptidase derived from Bacillus licheniformis and process for preparation of natural type proteins” (LG Chemical Ltd., priority 1997, dated 2002)

Tests used:
[1] = substrate: CSCC[C@H](N)C(=O)Nc1ccc([N+](=O)[O-])cc1; assay: Kinetic parameters of Bacillus licheniformis aminopeptidase (Lineweaver-Burk); type: biochemical; details: other: Tris-Cl pH 8.0, 37° C., 0.5 U enzyme, absorbance at 405 nm, Lineweaver-Burk plot
Protocol: (§1) Aminopeptidase activities of this invention were measured by the method of Pfleiderer (Pfleiderer, Meth. Enzymol., 19, 514-521, 1970). Precisely, 1 U of enzyme activity defines the enzyme quantity changing 1 absorbance at 405 nm which is measured by the process adding aminopeptidase in 1 ml solution of […] Tris-Cl (pH 8.0) and 2 mM leucine-p-nitroanilide (Sigma, USA), incubating at 37° C. for 1 min, then adding 100 μl of 70% acetic acid to stop the reaction. At that time leucine-p-nitroanilide was dissolved in dimethylsulfoxide (DMSO) to make 100 mM solution.
(§2) In order to compare substrate specificity of aminopeptidase of this invention, 2 kinds of substrate were used. In detail, one was synthetic substrates of p-nitroanilide derivative and purchased from Sigma, USA and the other was oligopeptide such as methionyl oligopeptide of SEQ. ID. NO: 1 which have amino acid sequence similar to N-terminus of methionyl HGH and leucyl oligopeptide of SEQ. ID. NO: 2. The oligopeptides of this invention were synthesized.
(§3) Enzyme reaction of aminopeptidase was performed by the process described in Reference Examples. At that time p-nitroanilide derivative was used as synthetic substrate. Leucine p-nitroanilide was used as substrate to perform the reaction in concentration of 0.03125, 0.0625, 0.125, 0.25, 0.5, 1 mM and methionine p-nitroanilide in 0.125, 0.25, 0.5, 1 mM and aminopeptidase in 0.5 U respectively. Above reactions using leucine-p-nitroanilide proceeded for 2 min and methionine-p-nitroanilide for 40 min. Then 70% acetic acid was added to stop the reactions and absorbance at 405 nm was measured. The product concentration was measured by adopting absorbance constant ε405=9450M^−1 cm^−1.
(§4) In reaction condition mentioned above, initial velocity of enzyme reaction was measured with varying the substrate concentration. Lineweaver-Burk plot was used to determine Km value and Maximum reaction velocity of aminopeptidase from Bacillus licheniformis. In addition kcat and kcat/Km was determined by using Km value and maximum reaction velocity described above.

[2] = substrate: CC(C)C[C@H](N)C(=O)Nc1ccc([N+](=O)[O-])cc1; assay: as above; type: biochemical; details: other: Tris-Cl pH 8.0, 37° C., 0.5 U enzyme, absorbance at 405 nm, Lineweaver-Burk plot
Protocol: as §1, §2, §3, §4

B1: Bacillus licheniformis aminopeptidase (Bacillus licheniformis DSM 13 = ATCC 14580) (protein)
chain: KFSKKFNENRAYQTIYHLSETIGPRVTGTAEEKKSAAFIASQMKKSNLKVSTQKFSIPDRLEGTLTVQGNNVPARPAAGSAPTAAEGLAAPLYDAGLGLPGDFTEEAKGKIAVILRGELTFYEKAKNAADAGASGVIIYNNVDSLVPLTPNLSGNKVDIPVVGVKKEDGEKLLSEQEAILKLKAHKNQTSQNVIGVRKAKGVKNPDIVYVTSHYDSVPYAPGANDNASGTSVVLELARILKTVPADKEIRFITFGAEEIGLLGSRHYVSTLSNQEVKRSVANFNLDMVATSWENASQLYINTPDGSANLVWQLSKAASLSLGKDVLFLHQGGSSDHVPFHEAGIDSANFIWREPGTGALEPWYHTPYDTIEHISKDRLKTAGQIAGTAVYNFTKKENRKPSYSSVAQ
Km [1]: 1004 µM | kcat [1]: 2.59 s⁻¹ | kcat/Km [1]: 2580 M⁻¹ s⁻¹ | Km [2]: 739 µM | kcat [2]: 130 s⁻¹ | kcat/Km [2]: 176000 M⁻¹ s⁻¹
